B1: S-adenosylhomocysteine hydrolase-like protein 1 (Homo sapiens), O43865 (parent)
chain: MSMPDAMPLPGVGEELKQAKEIEDAEKYSFMATVTKAPKKQIQFADDMQEFTKFPTKTGRRSLSRSISQSSTDSYSSAASYTDSSDDEVSPREKQQTNSKGSSNFCVKNIKQAEFGRREIEIAEQDMSALISLRKRAQGEKPLAGAKIVGCTHITAQTAVLIETLCALGAQCRWSACNIYSTQNEVAAALAEAGVAVFAWKGESEDDFWWCIDRCVNMDGWQANMILDDGGDLTHWVYKKYPNVFKKIRGIVEESVTGVHRLYQLSKAGKLCVPAMNVNDSVTKQKFDNLYCCRESILDGLKRTTDVMFGGKQVVVCGYGEVGKGCCAALKALGAIVYITEIDPICALQACMDGFRVVKLNEVIRQVDVVITCTGNKNVVTREHLDRMKNSCIVCNMGHSNTEIDVTSLRTPELTWERVRSQVDHVIWPDGKRVVLLAEGRLLNLSCSTVPTFVLSITATTQALALIELYNAPEGRYKQDVYLLPKKMDEYVASLHLPSFDAHLTELTDDQAKYLGLNKNGPFKPNYYRY
partner: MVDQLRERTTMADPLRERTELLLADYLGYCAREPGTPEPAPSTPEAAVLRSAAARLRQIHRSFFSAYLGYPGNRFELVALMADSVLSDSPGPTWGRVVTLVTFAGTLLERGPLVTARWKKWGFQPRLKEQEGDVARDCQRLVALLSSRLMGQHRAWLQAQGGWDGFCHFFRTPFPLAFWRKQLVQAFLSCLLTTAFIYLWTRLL

Variants of: B1
Conditions: with BCL2L10, Q9HD36

Row | Variant | effect of a mutation on the interaction
1 | S68A | with no effect
